# ± gives the standard deviation.
# Assay: protein stability index of a GFP-peptide fusion (GPS, HEK-293T) (PSI 1-6); higher = more stable
# [1] = treatment: DMSO, c terminus: a fixed tail appended
# [2] = treatment: MLN4924 1 uM, 8 h, c terminus: a fixed tail appended
# 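Note: 24-mer peptide tiles fused after GFP, lentivirally expressed, FACS-sorted into six equal bins by GFP/DsRed ratio, decoded by Illumina sequencing, PSI is the read-weighted mean bin number.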
Sequence,protein stability index [1],protein stability index [2],"protein stability index (treatment: DMSO, c terminus: native)","protein stability index (treatment: MLN4924 1 uM, 8 h, c terminus: native)"
CCEFLKRQLDPSNCLGIRAFADTH [KLHL20],2.62 ± 0.69,2.42 ± 0.48,–,–
MEPPGPVRGPLQDSSWYEPSAELV [ZNF232],4.79 ± 0.3,4.67 ± 0.43,–,–
IISAHIHPVCSLCWSRDGHKLVSA [RBBP5],2.45 ± 0.37,2.14 ± 0.24,–,–
AREHFGTVKTHLTSLKTKFPAEQY [TSN],3.02 ± 0.085,3.08 ± 0.48,–,–
AVFIALLPILGHRDYKIQASRTWC [PTGFR],2.95 ± 0.64,2.81 ± 1.1,–,–
YQSYFKTIEELQQKILCSKSENAR [KRT33B],2.57 ± 0.38,2.84 ± 0.49,–,–
HVGWLLVRKHPAVKEKGSTLDLSD [SCD],2.3 ± 0.26,2.48 ± 0.45,–,–
SSSDSDFDDEEPRKFYVHIKPAPA [FCHO1],4.5 ± 0.27,4.45 ± 0.084,–,–
SMALTCTFNRWGTLLAVGCNDGRI [RBBP5],2.48 ± 0.33,2.35 ± 0.34,–,–
VLFSVAGGLFVGKEGPMIHSGSVV [CLCN6],2.58 ± 0.34,2.74 ± 0.5,–,–
FKLKESCVRRRYSDFEWLKNELER [SNX12],2.33 ± 0.21,2.59 ± 0.26,–,–
PQQHFLEEKQASLWVQGDIFRSKL [CDC14A],3.12 ± 0.18,3.14 ± 0.28,–,–
VQTGLDQYQQVPVEIVKSDFHKPF [IQUB],3.5 ± 0.22,3.52 ± 0.33,–,–
PYQALRLWARGTWTQATGLGCALL [SOAT2],2.09 ± 0.46,2.05 ± 0.3,–,–
QKISLLHSCTCVLYTPSNEHFGIV [ALG2],2.55 ± 0.84,2.61 ± 0.8,–,–
SQEAADTPDTRHPCSLGSSLVADY [YJU2B],4.34 ± 0.35,4.59 ± 0.21,–,–
STRGAARPAQAIGTQPRATKHKCR [SPACA9],5.13 ± 0.098,5.14 ± 0.36,–,–
IVRFLESNWFVWVTQMNHIPMHID [FADS1],3.08 ± 0.95,3.1 ± 1,–,–
FRLETLAGLRSRRLKQPKAFCLRD [MIR22HG],2.52 ± 0.28,2.46 ± 0.29,–,–
LDSDHRELIGDYSKAFLLQTVDGK [CDC25B],3.77 ± 0.061,3.81 ± 0.2,–,–
LVYENFYADFGPLNLAMVYRYCCK [CDC14A],2.8 ± 0.27,2.5 ± 0.55,–,–
MMHDQRTGPAWNVLMWTMLFLGQG [SOAT2],2.8 ± 0.93,2.65 ± 0.59,–,–
PRAAGTDGSDFQHRERVAMHYQMS [JAGN1],3.96 ± 0.25,4.06 ± 0.18,–,–

Sequence,protein stability index [1],protein stability index [2],"protein stability index (treatment: DMSO, c terminus: native)","protein stability index (treatment: MLN4924 1 uM, 8 h, c terminus: native)"
EEERRRREEEERERLQKEEEKRRR [ACBD3],5.59 ± 0.45,5.69 ± 0.12,–,–
VEQPQPQFISRFLEGQSGVTIKHV [NEK8],3.27 ± 0.18,3.29 ± 0.17,–,–
GKKDVSHSSPVDLKIPQVRGMDLS [LCOR],4.32 ± 0.31,4.24 ± 0.36,–,–
PEITTEDIKAAFAPFGRISDARVV [TIA1],3.34 ± 0.21,3.3 ± 0.13,–,–
IQELELQAQIHGLPVPPTPGLLSL [TFE3],2.62 ± 0.22,2.56 ± 0.28,–,–
SFAILRIIRLVRVFRIFKLSRHSK [KCNA4],2.2 ± 0.4,2.44 ± 0.15,–,–
TFDGSLFAVFPSLNEEQTLQEVPT [ETS2],3.69 ± 0.28,3.57 ± 0.18,–,–
DTFAAYTREQLYQAIFHAVDQYLA [MCOLN1],2.66 ± 0.44,2.42 ± 0.44,–,–
QAIYVIDFFWNETWYLKTIDICHD [DHCR7],3.14 ± 0.37,3.25 ± 0.4,–,–
ASTKMCEQALGKGCGADSKKKRPP [PLK2],4.58 ± 0.11,4.76 ± 0.24,–,–
HDIVRFLVQLDDYRFASAGDDGIV [WDR41],2.21 ± 0.061,2.2 ± 0.25,–,–
LERGRASLIFSLKNEVGGLIKALK [TPH1],3.37 ± 0.36,2.36 ± 0.61,–,–
YRHFLKSPNFDGWFKTRRKEMTQK [DENND6A],2.83 ± 0.37,3.24 ± 0.12,–,–
DFWLNMAALTEALQRQAEQNPTAS [FCHO1],2.51 ± 0.21,2.47 ± 0.35,–,–
VRRECWFLPTALLCAYGFFASLRP [SLC19A2],2.95 ± 0.29,2.93 ± 0.28,–,–
GAAESPYSHLGGIDYKTTTILLDG [RAB40A],3.61 ± 0.4,3.57 ± 0.17,–,–
SAEQLKAQAIDFINRCSVLRQLGC [SPOPL],2.21 ± 0.33,2.51 ± 0.28,–,–
EKSVTKDAEGLAARDVQKIIGDYF [INTS4],2.85 ± 0.4,3.51 ± 0.12,–,–
HMVRESKIMEAESQKATRECEKSA [FAN1],5.29 ± 0.3,5.24 ± 0.14,–,–
AQEDSLNKLALQYGCKVADIKKVN [LYSMD4],3.41 ± 0.14,3.71 ± 0.15,–,–
IWFIVPISCVICNDIMAYMFGFFF [CDS2],3.19 ± 0.25,3.11 ± 0.61,–,–
LSVQQPTALALEPDAIRSRSNTLR [PCDHGC5],4.43 ± 0.17,4.56 ± 0.19,–,–
LRLYKHNSQALLLHSSILTCTLLL [MFSD9],2.74 ± 0.6,2.88 ± 0.67,–,–

Sequence,protein stability index [1],protein stability index [2],"protein stability index (treatment: DMSO, c terminus: native)","protein stability index (treatment: MLN4924 1 uM, 8 h, c terminus: native)"
PLLMNRQRVPKVLVENAKNFPQCV [EFHC1],2.46 ± 0.44,2.47 ± 0.072,–,–
IILTNQSVREVTQIKCIELKSELG [P2RY14],2.14 ± 0.23,2.27 ± 0.19,–,–
NASFIDGYRQQKAYIATQGPLAET [PTPRD],3.46 ± 0.43,3.53 ± 0.49,–,–
SASHYKLQVIKALKSSGLCESLTY [M1AP],2.03 ± 0.41,2.25 ± 0.59,–,–
SLLSLPVWVLMDEDVRIFFYQSPY [NCF4],2.56 ± 0.24,2.66 ± 0.47,–,–
LRLCAWGLASWPLARGIHVAGILS [POMT2],2.3 ± 0.26,2.22 ± 0.2,–,–
LSWELLDSHLGGNARGMGIRSPRP [CTBP1-DT],3.18 ± 0.46,3.18 ± 0.3,–,–
GHSSSRDDYPSRGYSDRDGYGRDR [RBMX],4.87 ± 0.18,4.88 ± 0.16,–,–
PMQESKAEGNNQAPGEEEEEEEEA [CHGA],5.49 ± 0.39,5.74 ± 0.15,–,–
RSFSDKQKISLLHSCTCVLYTPSN [ALG2],2.17 ± 0.28,2.1 ± 0.32,–,–
DKFVATMYHYLQFAYYKLNDVRQA [P3H4],2.75 ± 0.39,2.77 ± 0.47,–,–
KQLNCVEISALNGNRINVPMVRKR [DLC1],4.12 ± 0.24,4.07 ± 0.3,–,–
FAKAGDTLSGTCLLIANKRQSYDI [CARM1],2.48 ± 0.38,2.36 ± 0.41,–,–
MASLGPAAAGEQASGAEAEPGPAG [BTBD1],5.55 ± 0.16,5.52 ± 0.31,–,–
PSRGGNQLPRPPIVGGNKGRSGPL [WAS],4.6 ± 0.07,4.73 ± 0.22,–,–
CEKFLQEVDFFQRYFIADLPHLQD [INTS4],2.49 ± 0.54,1.95 ± 0.48,–,–
QEYESIDPGQQFTWEHSNLEVNKP [PTPRD],4.94 ± 0.1,4.93 ± 0.069,–,–
NDLLEILEIDDLDAIVPAVKKLKV [CEP70],2.4 ± 0.46,2.87 ± 0.27,–,–
PSKVEVTEKTTTVLSESSGPSNTS [C2CD2L],5.43 ± 0.095,5.44 ± 0.23,–,–
AGELRKPTQEEWRQVVDILWSDPM [PPEF2],3 ± 0.53,2.97 ± 0.082,–,–
ALVVALWGPLQDSLEHTLRVAIAH [TSPAN10],2.89 ± 0.12,3.05 ± 0.15,–,–
VEEFGVVSNTRLIAAATSVLKTRF [CCNC],2.88 ± 0.61,2.26 ± 0.68,–,–
MHYQMSVTLKYEIKKLIYVHLVIW [JAGN1],3.1 ± 0.32,3.15 ± 0.8,–,–

Sequence,protein stability index [1],protein stability index [2],"protein stability index (treatment: DMSO, c terminus: native)","protein stability index (treatment: MLN4924 1 uM, 8 h, c terminus: native)"
PQKLLGCSPALKRSHSDSLDHDIF [CDC25A],3.12 ± 0.28,3.24 ± 0.33,–,–
CRPLQFQPSKSHKKVLKKMLKFLA [ATE1],–,3.43 ± 0.17,–,–
ELRLYKQQVKKLEKALKKNVKLQE [CEP70],2.8 ± 0.59,3.08 ± 0.25,–,–
AIEIFRYSFYMLTCIDMDWKVLTW [HACD3],3.23 ± 0.4,2.57 ± 0.53,–,–
TVVGVPSGKVSSSSSSLGNKLQTL [ZC2HC1A],3.56 ± 0.34,3.73 ± 0.29,–,–
MAPLLFNGCRSGEIFAIDLRCGNQ [DCAF4],2.52 ± 0.29,2.3 ± 0.56,–,–
AAQAAAAAHAAQAHRERNEFPEDP [PI4K2A],5.36 ± 0.35,5.5 ± 0.1,–,–
FLVSAVAHEYIFCFVLGFFYPVML [SOAT2],3.25 ± 0.35,3.3 ± 0.44,–,–
ESIQRIAVHLCNALVCQVDNDHKE [ZER1],2.81 ± 0.63,2.64 ± 0.36,–,–
QEIMEKYNIKLKWTNQQKLYSRTG [CFHR2],2.45 ± 0.32,2.66 ± 0.35,–,–
PTVTTSWQSESLPVSLSASQSWHT [BCL2L13],3.25 ± 0.31,3.12 ± 0.22,–,–
ETTEAIDDEGWLHSGDLGQLDGLG [ACSBG2],5.23 ± 0.25,5.15 ± 0.21,–,–
TPIEVLCENFPEMATYLRYVRRLD [CSNK1G3],2.39 ± 0.3,2.6 ± 0.44,–,–
PPTLQEAGLSHTEVLFVQDLTDE [FAF2],–,–,4.88 ± 0.25,4.92 ± 0.15
SAFTAAHELGHVFNMLHDNSKPCI [ADAMTS4],2.93 ± 0.094,3 ± 0.19,–,–
AALQRSLAAALAQHSVPLQLELRA [TRADD],2.89 ± 1.2,2.46 ± 0.73,–,–
EEGLEARGEALGLVGAQAPATEEQ [MAGEA3],5.57 ± 0.27,5.39 ± 0.34,–,–
GILEHVDSASPVEDTSNDESSILG [M1AP],5.56 ± 0.26,5.48 ± 0.4,–,–
PPPPYEAVVSQMDQEQGSSFQMSE [FAM189A2],5.54 ± 0.27,5.43 ± 0.096,–,–
ITLSQEQIQKYTDCLQFYVNSTLK [RTN1],2.08 ± 0.1,2.1 ± 0.086,–,–

# Source: the supplement of paper PMC10567573
